The results in this text go back to the Human Domainome abundance scans (Beltran et al. 2025).

± gives the uncertainty stated by the source.

The labels stand for the following.
B1: Nucleolar transcription factor 1, residues 408 to 469; numbered along this chain, P17480 (parent)
chain: KRPVSAMFIFSEEKRRQLQEERPELSESELTRLLARMWNDLSEKKKAKYKAREAALKAQSER

Variants of B1 are the subject of the data set. Briefly: abundance fitness (aPCA) (normalised: wild type 0, dead -1); higher = more abundant; growth selection in yeast, the domain comes from the species named. The settings on record: Homo sapiens.
As to T31A, the abundance fitness was -0.043 ± 0.065.
On to T31S, for which the abundance fitness is -0.02 ± 0.036.
For T31Y, the abundance fitness is -0.428 ± 0.21.
With T31L, the abundance fitness is -0.107 ± 0.049.
As to T31W, the abundance fitness was -0.221 ± 0.056.
Consider T31Q, for which the abundance fitness is -0.045 ± 0.081.
The same measure for T31P: -0.423 ± 0.079; for Q17N: -0.078 ± 0.22.
For the variant Q17A, the abundance fitness is -0.081 ± 0.068.
Regarding Q17H, the abundance fitness is -0.091 ± 0.12.
For Q17S the value was -0.016 ± 0.053; for Q17W, -0.106 ± 0.046.
For K46T the value was -0.393 ± 0.089; for K46R, -0.069 ± 0.04; for K46E, -0.708 ± 0.065.
K46G: the abundance fitness is -0.806 ± 0.045.
Regarding K46A, the abundance fitness was -0.311 ± 0.045.
The same measure for K46F: -0.785 ± 0.12; for K46H: -0.662 ± 0.21; for L30N: -0.303 ± 0.082.
Regarding L30R, the abundance fitness was -0.108 ± 0.043.
As to L30Q, the abundance fitness is -0.032 ± 0.074.
As for L30I, the abundance fitness was -0.171 ± 0.13.
With L30D, the abundance fitness was -0.65 ± 0.27.
The same measure for L30G: -0.254 ± 0.047; for S26M: -0.052 ± 0.088.
In the case of S26R, the abundance fitness was -0.157 ± 0.059.
With S26N, the abundance fitness was -0.1 ± 0.1.
On to S26H, for which the abundance fitness is -0.182 ± 0.1.
For the variant S26A, the abundance fitness was -0.115 ± 0.056.
For S26F the value was -0.592 ± 0.11; for K44S, 0.003 ± 0.041.
As to K44W, the abundance fitness was -0.09 ± 0.053.
In the case of K44P, the abundance fitness is -0.037 ± 0.051.
As for K44R, the abundance fitness is -0.139 ± 0.035.
In the case of K44H, the abundance fitness is -0.121 ± 0.12.
In the case of K44V, the abundance fitness is -0.034 ± 0.04.
As to Y49W, the abundance fitness was -0.022 ± 0.06.
With Y49H, the abundance fitness is -0.597 ± 0.096.
Regarding Y49T, the abundance fitness is -0.798 ± 0.12.
Turning to Y49Q, the abundance fitness was -0.756 ± 0.17.
On to Y49P, for which the abundance fitness was -0.615 ± 0.084.
On to Y49N, for which the abundance fitness was -0.807 ± 0.09.
Turning to Y49M, the abundance fitness is -0.839 ± 0.08.
L33Q: the abundance fitness is -0.092 ± 0.083.
Turning to L33W, the abundance fitness was -0.315 ± 0.086.
For the variant L33S, the abundance fitness was -0.188 ± 0.07.
Turning to L33P, the abundance fitness is -1.22 ± 0.19.
As for R15L, the abundance fitness was -0.168 ± 0.043.
In the case of R15I, the abundance fitness is -0.209 ± 0.094.
In the case of R15N, the abundance fitness was -0.427 ± 0.08.
Regarding R15A, the abundance fitness was -0.201 ± 0.051.
As to R15D, the abundance fitness was -1.2 ± 0.25.
Take R15V: the abundance fitness was -0.29 ± 0.052.
For the variant V4H, the abundance fitness is -0.172 ± 0.15.
V4Q: the abundance fitness was -0.099 ± 0.08.
As for V4W, the abundance fitness was -0.602 ± 0.072.
In the case of V4C, the abundance fitness was -0.213 ± 0.08.
The same measure for V4S: -0.082 ± 0.053; for V4P: -0.238 ± 0.11.
The same measure for V4D: -0.011 ± 0.085; for V4E: 0.037 ± 0.11.
Consider R22H, for which the abundance fitness came out at 0.06 ± 0.11.
Turning to R22P, the abundance fitness was -1.06 ± 0.16.
In the case of R22E, the abundance fitness is -0.194 ± 0.11.
With R22S, the abundance fitness was -0.119 ± 0.05.
The same measure for R22K: -0.089 ± 0.083.
The same measure for L41T: -0.241 ± 0.065; for L41N: -0.609 ± 0.29; for L41W: -1.06 ± 0.074.
Turning to E21T, the abundance fitness came out at 0.02 ± 0.066.
Consider E21W, for which the abundance fitness was -0.189 ± 0.064.
For the variant E21H, the abundance fitness is -0.163 ± 0.12.
On to E21K, for which the abundance fitness is -0.065 ± 0.075.
For D40W, the abundance fitness was -0.319 ± 0.056.
Take D40E: the abundance fitness was -0.058 ± 0.054.
Turning to D40A, the abundance fitness is -0.143 ± 0.06.
The same measure for D40R: -0.237 ± 0.039; for A47I: -0.184 ± 0.15; for A47H: -0.295 ± 0.2.
A47Y: the abundance fitness was -0.122 ± 0.15.
With A47N, the abundance fitness was -0.297 ± 0.23.
The same measure for A47G: -0.098 ± 0.052; for A58K: -0.042 ± 0.05; for A58S: -0.051 ± 0.048.
Turning to A58Q, the abundance fitness is -0.002 ± 0.065.
Consider A58Y, for which the abundance fitness is -0.173 ± 0.13.
For A58C, the abundance fitness is -0.067 ± 0.072.
With A58G, the abundance fitness turned out to be 0.001 ± 0.056.
As to A58H, the abundance fitness was 0.029 ± 0.098.
With A58I, the abundance fitness is 0.022 ± 0.12.
For A58D the value was 0.006 ± 0.1.
On to K14A, for which the abundance fitness was -0.057 ± 0.061.
For the variant K14C, the abundance fitness was -0.319 ± 0.095.
Consider K14R, for which the abundance fitness is -0.034 ± 0.046.
With K14M, the abundance fitness was -0.044 ± 0.074.
The same measure for R52D: -0.106 ± 0.14; for R52H: -0.1 ± 0.099; for R52T: -0.042 ± 0.079.
With R52V, the abundance fitness is -0.127 ± 0.058.
In the case of R52P, the abundance fitness was -0.254 ± 0.064.
In the case of R52W, the abundance fitness was -0.234 ± 0.077.
Consider R52N, for which the abundance fitness is -0.277 ± 0.11.
Consider R52K, for which the abundance fitness came out at 0.014 ± 0.1.
Turning to P3G, the abundance fitness is -0.083 ± 0.054.
For P3T the value was 0.021 ± 0.095.
The same measure for P3S: -0.014 ± 0.052.
Turning to P3D, the abundance fitness was -0.04 ± 0.12.
The same measure for P3L: -0.068 ± 0.068.
In the case of E24W, the abundance fitness was -0.083 ± 0.064.
Turning to E24C, the abundance fitness is -0.225 ± 0.14.
For E24P the value was -0.451 ± 0.093; for E24R, -0.225 ± 0.06; for E24S, -0.147 ± 0.05.
For E24G the value was -0.069 ± 0.05; for E24I, -0.544 ± 0.085.
For A54H the value was -0.014 ± 0.13; for A54K, -0.014 ± 0.054.
For the variant R36I, the abundance fitness was -0.101 ± 0.12.
Regarding R36T, the abundance fitness was -0.037 ± 0.071.
On to R36V, for which the abundance fitness is -0.05 ± 0.052.
For R36N the value was -0.023 ± 0.12; for R36F, -0.097 ± 0.11.
For E29K the value was -0.207 ± 0.079.
As for E29C, the abundance fitness is -0.223 ± 0.14.
The same measure for E29W: -0.699 ± 0.069; for E29Q: -0.111 ± 0.066.
In the case of E29S, the abundance fitness is -0.17 ± 0.067.
For E29P, the abundance fitness was -1.14 ± 0.083.
For E29G, the abundance fitness was -0.2 ± 0.041.
Take F10N: the abundance fitness was -0.562 ± 0.21.
F10P: the abundance fitness was -0.677 ± 0.089.
The same measure for F10H: -0.258 ± 0.47; for F10T: -0.751 ± 0.087; for F10M: -0.522 ± 0.077.
For F10R the value was -0.88 ± 0.058; for F10V, -1.09 ± 0.07.
R2N: the abundance fitness is -0.003 ± 0.072.
R2T: the abundance fitness was -0.143 ± 0.13.
On to R2A, for which the abundance fitness is -0.151 ± 0.065.
R2I: the abundance fitness was -0.158 ± 0.17.
For the variant R2S, the abundance fitness was -0.072 ± 0.068.
For R2W the value was -0.453 ± 0.11.
As to I9L, the abundance fitness is -0.027 ± 0.064.
For the variant I9G, the abundance fitness was -0.43 ± 0.046.
The same measure for R16C: -0.012 ± 0.069.
Regarding R16G, the abundance fitness was -0.037 ± 0.043.
For the variant R16E, the abundance fitness was -0.106 ± 0.074.
Consider R16S, for which the abundance fitness was -0.001 ± 0.048.
With R16M, the abundance fitness was -0.024 ± 0.067.
For R16Y, the abundance fitness was -0.072 ± 0.099.
The same measure for R16D: -0.248 ± 0.094; for E43G: -0.231 ± 0.073; for E43P: -0.592 ± 0.34.
In the case of E43V, the abundance fitness is -0.207 ± 0.11.
For A6H, the abundance fitness is -0.534 ± 0.12.
For A6Q the value was -0.331 ± 0.064.
For A6G the value was -0.045 ± 0.059.
With A6V, the abundance fitness was -0.488 ± 0.065.
On to A6T, for which the abundance fitness is -0.44 ± 0.088.
On to A6R, for which the abundance fitness is -0.401 ± 0.047.
In the case of A6D, the abundance fitness was -0.191 ± 0.083.
Take E27F: the abundance fitness is -0.212 ± 0.091.
The same measure for E27H: -0.4 ± 0.12; for E27A: -0.143 ± 0.06; for E27C: -0.165 ± 0.1.
Regarding E27P, the abundance fitness is -0.067 ± 0.066.
